B1: Apolipophorin-3b, P10762 (parent)
chain: MNTLLAVLMLAVAAQARPDAAGHVNIAEAVQQLNHTIVNAAHELHETLGLPTPDEALNLLTEQANAFKTKIAEVTTSLKQEAEKHQGSVAEQLNRFARNLNNSIHDAATSAQPADQLNSLQSALTNVGHQWQTSQPRPSVAQEAWAPVQSALQEAAEKTKEAAANLQNSIQSAVQKPAN

Variants of: B1
Settings: Locusta migratoria, pH 7.4, CD, Na2HPO4 KH2PO4 10 mM 2 mM, NaCl 127 mM, reversible: yes, structure 1LS4, whole UniProt chain shown; for ddG of mutation (higher = less stable) / denaturant midpoint (higher = more stable) / unfolding free energy: 25 °C, GdnHCl; for Tm / change of melting temperature, mutant - wild type (higher = more stable): Thermal

Variant: A155K
- ddG of mutation (higher = less stable): 1.69 kcal/mol
- denaturant midpoint (higher = more stable): 0.16 M
- unfolding free energy: 0.36 kcal/mol
- Tm: 38 °C
- change of melting temperature, mutant - wild type (higher = more stable): -15 °C

Variant: T159A
- ddG of mutation (higher = less stable): 1.32 kcal/mol
- denaturant midpoint (higher = more stable): 0.28 M
- unfolding free energy: 0.73 kcal/mol
- Tm: 44 °C
- change of melting temperature, mutant - wild type (higher = more stable): -9 °C

Variant: T47A
- ddG of mutation (higher = less stable): -0.6 kcal/mol
- denaturant midpoint (higher = more stable): 0.62 M
- unfolding free energy: 2.65 kcal/mol
- Tm: 57 °C
- change of melting temperature, mutant - wild type (higher = more stable): 4 °C

Variant: L33K
- ddG of mutation (higher = less stable): 1.36 kcal/mol
- denaturant midpoint (higher = more stable): 0.2 M
- unfolding free energy: 0.69 kcal/mol
- Tm: 37 °C
- change of melting temperature, mutant - wild type (higher = more stable): -16 °C

Variant: T47A T159A
- ddG of mutation (higher = less stable): 1.06 kcal/mol
- denaturant midpoint (higher = more stable): 0.37 M
- unfolding free energy: 0.99 kcal/mol

Source: FireProtDB (doi:10.1021/bi050502v)
